Assay results reported in article PMC5655137.

Target: E. coli small ribosomal 30S subunit (E. coli (MRE600)) (UniProt P0AG67)

Chain of E. coli RNA polymerase core complex (P0A7Z4 whole entry): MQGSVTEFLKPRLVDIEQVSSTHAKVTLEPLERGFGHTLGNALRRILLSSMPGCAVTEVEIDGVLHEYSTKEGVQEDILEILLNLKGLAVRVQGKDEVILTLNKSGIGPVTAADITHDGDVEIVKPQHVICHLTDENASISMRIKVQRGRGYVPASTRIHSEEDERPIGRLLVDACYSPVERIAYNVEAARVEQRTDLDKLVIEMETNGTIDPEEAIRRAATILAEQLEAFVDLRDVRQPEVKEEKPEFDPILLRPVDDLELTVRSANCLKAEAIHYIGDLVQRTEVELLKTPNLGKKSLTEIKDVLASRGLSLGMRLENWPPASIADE
Chain of E. coli RNA polymerase core complex (P0A8V2 2-1341): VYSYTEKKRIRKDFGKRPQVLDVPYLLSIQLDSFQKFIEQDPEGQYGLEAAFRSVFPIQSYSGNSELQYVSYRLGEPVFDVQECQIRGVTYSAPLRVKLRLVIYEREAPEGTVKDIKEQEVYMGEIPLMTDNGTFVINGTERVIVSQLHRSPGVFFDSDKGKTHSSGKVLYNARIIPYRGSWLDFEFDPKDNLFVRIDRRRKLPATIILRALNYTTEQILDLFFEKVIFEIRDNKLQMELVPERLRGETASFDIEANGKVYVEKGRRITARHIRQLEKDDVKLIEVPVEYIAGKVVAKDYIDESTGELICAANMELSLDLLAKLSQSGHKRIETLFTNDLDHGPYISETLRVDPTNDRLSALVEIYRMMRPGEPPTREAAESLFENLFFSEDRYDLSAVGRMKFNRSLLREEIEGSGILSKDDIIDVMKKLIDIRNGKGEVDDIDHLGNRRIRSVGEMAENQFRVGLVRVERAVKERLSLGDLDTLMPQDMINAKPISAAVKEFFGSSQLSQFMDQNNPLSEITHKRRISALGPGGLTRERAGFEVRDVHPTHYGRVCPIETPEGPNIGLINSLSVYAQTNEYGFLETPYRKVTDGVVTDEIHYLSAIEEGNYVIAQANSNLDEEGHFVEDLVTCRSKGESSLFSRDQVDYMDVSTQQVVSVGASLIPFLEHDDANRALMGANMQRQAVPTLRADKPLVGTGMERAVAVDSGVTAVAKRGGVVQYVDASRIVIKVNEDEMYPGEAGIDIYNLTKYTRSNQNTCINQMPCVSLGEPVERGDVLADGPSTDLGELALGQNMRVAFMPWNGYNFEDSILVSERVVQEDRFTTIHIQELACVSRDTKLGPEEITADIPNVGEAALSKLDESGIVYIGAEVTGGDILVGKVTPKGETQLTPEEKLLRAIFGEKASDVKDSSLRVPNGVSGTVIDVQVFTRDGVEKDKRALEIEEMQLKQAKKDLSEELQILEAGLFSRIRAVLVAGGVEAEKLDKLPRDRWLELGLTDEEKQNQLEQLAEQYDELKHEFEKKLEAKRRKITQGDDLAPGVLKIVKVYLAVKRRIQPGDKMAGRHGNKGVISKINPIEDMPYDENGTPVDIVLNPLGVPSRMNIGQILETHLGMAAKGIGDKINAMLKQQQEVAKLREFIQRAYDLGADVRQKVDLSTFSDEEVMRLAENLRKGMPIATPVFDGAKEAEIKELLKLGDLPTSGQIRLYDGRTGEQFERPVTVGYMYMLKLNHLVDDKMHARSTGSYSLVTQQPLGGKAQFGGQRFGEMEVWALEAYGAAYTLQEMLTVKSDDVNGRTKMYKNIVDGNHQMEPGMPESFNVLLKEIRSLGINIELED
Chain of E. coli RNA polymerase core complex (P0A8T7 8-1376): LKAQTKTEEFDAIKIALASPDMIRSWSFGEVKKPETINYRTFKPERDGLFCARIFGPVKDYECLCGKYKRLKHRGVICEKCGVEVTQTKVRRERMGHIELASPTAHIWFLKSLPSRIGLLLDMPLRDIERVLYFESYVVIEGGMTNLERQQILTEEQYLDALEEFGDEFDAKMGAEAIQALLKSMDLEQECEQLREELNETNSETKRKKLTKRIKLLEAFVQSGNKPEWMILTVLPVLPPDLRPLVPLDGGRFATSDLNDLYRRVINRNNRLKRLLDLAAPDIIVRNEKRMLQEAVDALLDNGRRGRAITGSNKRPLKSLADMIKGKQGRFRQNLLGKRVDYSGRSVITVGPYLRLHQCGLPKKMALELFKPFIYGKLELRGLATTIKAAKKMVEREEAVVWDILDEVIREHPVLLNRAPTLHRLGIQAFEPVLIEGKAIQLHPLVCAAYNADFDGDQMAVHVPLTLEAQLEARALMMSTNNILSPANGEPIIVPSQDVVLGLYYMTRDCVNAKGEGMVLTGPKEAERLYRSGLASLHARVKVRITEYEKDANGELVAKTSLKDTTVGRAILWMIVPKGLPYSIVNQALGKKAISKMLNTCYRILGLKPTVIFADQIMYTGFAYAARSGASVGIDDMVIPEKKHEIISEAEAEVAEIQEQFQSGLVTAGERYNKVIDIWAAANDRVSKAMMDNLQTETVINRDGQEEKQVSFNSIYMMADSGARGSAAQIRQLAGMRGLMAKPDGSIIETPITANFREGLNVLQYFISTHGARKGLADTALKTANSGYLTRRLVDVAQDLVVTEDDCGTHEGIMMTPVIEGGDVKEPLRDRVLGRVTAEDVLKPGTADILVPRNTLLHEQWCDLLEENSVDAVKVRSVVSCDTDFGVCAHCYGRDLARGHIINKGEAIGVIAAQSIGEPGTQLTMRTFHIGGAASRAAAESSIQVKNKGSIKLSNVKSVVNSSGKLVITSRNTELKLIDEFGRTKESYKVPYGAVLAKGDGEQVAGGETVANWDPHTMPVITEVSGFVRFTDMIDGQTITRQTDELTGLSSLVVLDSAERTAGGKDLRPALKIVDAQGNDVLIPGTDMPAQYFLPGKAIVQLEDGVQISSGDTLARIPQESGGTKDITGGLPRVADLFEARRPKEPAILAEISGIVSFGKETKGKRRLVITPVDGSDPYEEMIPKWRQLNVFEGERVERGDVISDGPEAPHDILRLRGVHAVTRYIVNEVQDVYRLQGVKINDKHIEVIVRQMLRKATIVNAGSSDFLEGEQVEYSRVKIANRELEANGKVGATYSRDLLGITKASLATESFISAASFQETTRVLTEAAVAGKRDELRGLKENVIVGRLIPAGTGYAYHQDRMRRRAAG
Chain of E. coli RNA polymerase core complex (P0A800 whole entry): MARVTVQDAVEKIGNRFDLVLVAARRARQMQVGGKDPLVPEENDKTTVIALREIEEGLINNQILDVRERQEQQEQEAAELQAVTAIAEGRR

“E. coli RNA polymerase core complex (from UniProt P0A7Z4 1-329; P0A8V2 2-1341; P0A8T7 8-1376; P0A800 1-91) (complex; C-terminal 6xHis tag on beta' omitted; Zn-bound beta' Zn-finger; core without sigma; K12 sequences assumed)” showed a Kd of 21 nM.
